The target in the test is T1, EBOV GP1,2 stalk–MPER epitope peptide (aa 626–640) (Ebola virus (EBOV), UniProt Q05320).
T1 chain: IIHDFVDKTLPDQGD
Kind of test: crystal structure. Conditions: both partners purified.

B1: 3A6 Fab (Fab, V domains shown)
VH: EVQLLESGGGLVKPGGSLRLSCAASGFTFNEYMMNWVRQPPGKGLEWVSSISGTSTYINYADSVKGRFTISRDNAKNSLYLQMNSLRSDDTAMYYCARGSTGGYWGQGTLITVSS
VL: DIVMTQTPLSSAVTLGQPASISCRSSQRLVHSDGNTYLSWLHQRPGQPPRLLIYKVSLRFSGVPDRFSGSGAGTDFTLKISRVEAEDVGIYYCMQATQFPLTFGGGTKVEIK
B1: the binding result is “binds”.

The values above are taken from publication PMC10775387 (Research Square, 2023).
